The text below walks through data of patent publication US20120309934A1 (GWANGJU INSTITUTE OF SCIENCE AND TECHNOLOGY, published 2012).

Some results are limits rather than exact numbers.

Test [1] has as its target T1, VEGF121 (human vascular endothelial growth factor) (human, UniProt P15692-9 27-147).
T1 construct: Immobilised on a CM5 chip by EDC/NHS for SPR and coated on plates for phage ELISA; also called VEGF-Trx cut with thrombin
T1 sequence (looked up): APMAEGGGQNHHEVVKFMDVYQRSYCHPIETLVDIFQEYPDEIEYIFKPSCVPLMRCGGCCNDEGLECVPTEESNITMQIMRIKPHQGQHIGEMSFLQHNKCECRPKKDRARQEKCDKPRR
Nature of the test: SPR (BIAcore X), VEGF on CM5 chip, synthetic peptide as analyte. The method, then: (§1) Bipodal-peptide binder peptides specific to ED-B, VEGF or nAchR which were repetitively found in DNA sequencing were synthesized from Anigen Inc. (Korea). Affinity was measured using BIAcore X instrument (Biacore AB, Uppsala, Sweden). ED-B and nAchR were immobilized on streptavidin (SA) chip (Biacore) by injecting 2,000 RU biotinylated-EDB. VEGF was immobilized on CM5 chip (Biacore) using EDC/NHS. PBS (pH 7.4) was used as a running buffer.
(§2) The above-mentioned peptides were synthesized and their affinities to fibronectin ED-B, VEGF, VCAM1, nAchR and HAS were measured using SPR Biacore system (Biacore AB, Uppsala, Sweden).
For orientation: Surface plasmon resonance follows binding to a sensor surface in real time, without labels.

The target in test [2] is T1, VEGF121 (human vascular endothelial …). Nature of the test: SPR (BIAcore X), VEGF on CM5 chip. The method, then:
as §1, §2

In test [3] the target is T2, Fibronectin ED-B protein (human fibronectin extra domain B, N-terminal His-tag) (human, UniProt P02751 1266-1356, biotinylated with sulfo-NHS-SS-biotin for biopanning, input-phage ELISA and SPR on the streptavidin chip).
T2 construct: domain: ED-B; Expressed in E. coli BL21 from pET28b; also called biotinylated-EDB; not shown: N-terminal His-tag from the pET28b vector
The test can be described thus: SPR (BIAcore X), 2,000 RU biotinylated ED-B on streptavidin chip, PBS pH 7.4, 30 µl/min. As for the experimental part:
(§3) In addition to tryptophan zipper, GB1 m3 and HP7 peptide as a type of other (3-hairpin backbones were synthesized to contain N-terminal sequence (HCSSAV) and C-terminal sequence (IIRLEQ) of peptide 2 which is specifically bound to ED-B (Anigen, Korea). In other words, the sequence of bipodal-peptide binder in tryptophan zipper is […], and in GB1 m3 and HP7 are […] and […], respectively. Affinity of each peptide was measured using BIAcore X (Biacore AB, Uppsala, Sweden). ED-B was immobilized on streptavidin (SA) chip (Biacore) by injecting 2,000 RU biotinylated-EDB. PBS (pH 7.4) was used as a running buffer. […] It could be appreciated that all stable β-hairpin motifs may function as a structure stabilizing region.

The target of test [4] is T2, Fibronectin ED-B protein (human …). Nature of the test: SPR (BIAcore X), biotinylated ED-B on SA chip. The method, then: as §3
Test [5] has the same target. The test can be described thus: SPR (BIAcore X), biotinylated ED-B on streptavidin chip, synthetic peptide as analyte. The method, then: as §1, §2
Test [6] shares this target. The test can be described thus: SPR (BIAcore X), biotinylated ED-B on SA chip. The method, then:
as §1, §2
This is another data set of the same source.

The target of test [7] is T3, Human serum albumin (human, UniProt P02768 25-609).
T3 construct: Bought protein; also called HSA; HAS
Nature of the test: phage ELISA: clones with higher absorbance than on BSA, sequenced. As for the experimental part:
(§4) The transformed cells were infected with Ex helper phages (5×10⁹ pfu/ml; OD=0.8-1.0) and cultured at 37° C. for 1 hr with shaking at 200 rpm. After removing the supernatant by centrifuging at 1,000×g for 10 min, the precipitated cells were resuspended in 1 ml LB liquid media supplemented with 50 μg/ml ampicillin and 25 μg/ml kanamycin, and cultured at 30° C. overnight with shaking at 200 rpm. The supernatant was collected by centrifuging at 10,000×g for 20 min at 4° C. and mixed with 2% skim milk, which is used in detection of phage peptides.
(§5) Fibronectin ED-B, VEGF, VCAM1, Nicotinic acetylcholine receptor (nAchR), Human serum albumin and MyD88 (each 5 μg/ml) and BSA (10 μg/ml) were added to 30 wells (50 μl per well) in a 96-well ELISA plate and then kept to stand at 4° C. overnight. Next day, all wells were washed with 0.1% PBST three times, and blocked at room temperature for 2 hrs using 2% skim milk diluted with PBS. Then, the solution was removed and the plate was washed with 0.1% PBST three times. Phage peptide solution (100 μl) amplified from each clone was divided into all wells and kept to stand at 27° C. for 1.5 hrs. After washing with 0.1% PBST 5 times, HRP-conjugated anti-M13 antibodies (1:1,000 dilution; GE Healthcare) were added to each well and incubated at 27° C. for 1 hr. After washing with 0.1% PBST 5 times, 100 μl TMB was divided into each well to induce colorimetric reaction, followed by stopping the reaction adding 100 μl of 1 M HCl. The absorbance was measured at 450 nm to select phages which had the absorbance higher than BSA. XL1 cells were infected with these phages and spread in plate to produce 100-200 of plaques. Using a sterile tip, plaques were inoculated in 4 ml LB-ampicillin (50 μg/ml) media and cultured at 37° C. overnight with vigorous shaking. Plasmids were purified by plasmid preparation kit (GeneAll, Seoul, Korea), and then sequenced. The following phagemid sequence was used for sequencing: 5′-[…]-3′.
(§6) The phages recovered from biopanning step having the highest ratio of output phage to input phage were isolated as plaques. Sixty plaques were amplified from each plaque, and then ELISA for BSA was carried out (FIG. 4). After selecting clones with higher absorbance compared to BSA, they were sequenced. We isolated peptides specific to each protein which were repetitively found in DNA sequencing (Table 3).
For orientation: In an ELISA, binding on a coated surface is turned into a signal by an enzyme label.

The target of test [8] is T1, VEGF121 (human vascular endothelial …). The description is as above. The method, then: as §4, §5, §6
In test [9] the target is T2, Fibronectin ED-B protein (human …). The test can be described thus: SPR (Biacore), ED-B. As for the experimental part: as §1
(§7) To verify cooperative effect of bipodal-peptide binder to antigen, we synthesized two peptides removing either N- or C-terminal region of peptide 2 to ED-B having excellent specificity in Table 3a for affinity measurement.

Test [10] has the same target. The test can be described thus: SPR, synthetic truncated peptide on ED-B. As for the experimental part: as §1, §7
Test [11] concerns the target T4, Peptide fragment of nAchR (Nicotinic acetylcholine receptor), 32 mer, biotinylated (N-terminal biotin).
T4 construct: Synthesised by Anigen; Immobilised on a streptavidin chip for SPR; also called biotinylated nAchR; biotinylated-nAchR peptide
T4 peptide: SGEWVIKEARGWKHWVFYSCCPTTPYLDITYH
Nature of the test: phage ELISA: clones with higher absorbance than on BSA, sequenced. As for the experimental part:
as §4, §5, §6

Test [12] deals with T5, GST-AR DBD protein (androgen receptor DNA binding domain with N-terminal GST) (UniProt P10275 556-636).
T5 construct: In ELISA and EMSA the text calls the protein AR-DBD or AR DBD protein; also called androgen receptor DBD; not shown: GST encoded by the pGEX-4T-1 vector, N-terminal
T5 sequence (looked up): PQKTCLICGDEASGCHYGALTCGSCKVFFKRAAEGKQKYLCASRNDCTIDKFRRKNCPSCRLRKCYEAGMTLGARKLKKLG
The test can be described thus: phage ELISA of single clones on AR-DBD against BSA. The method, then:
AR-DBD (10 μg/ml) and BSA (10 μg/ml) each was added to 30 wells (50 μl per well) in a 96-well ELISA plate and then kept to stand at 4° C. overnight. Next day, all wells were washed with 0.1% PBST three times, and blocked at room temperature for 2 hrs using 2% skim milk diluted with PBS. Then, the solution was removed and the plate was washed with 0.1% PBST three times. Phage peptide solution (100 μl) amplified from each clone was aliquoted to […] protein-bound wells and BSA protein-bound wells and kept to stand at 27° C. for 1.5 hrs. After washing with 0.1% PBST 10 times, HRP-conjugated anti-M13 antibodies (1:1,000 dilution; GE Healthcare) were added to each well and incubated at 27° C. for 1 hr. After washing with 0.1% PBST 5 times, 100 μl TMB was divided into each well to induce colorimetric reaction, followed by stopping the reaction adding 100 μl of 1 M HCl. The absorbance was measured at 450 nm to select phages which had the absorbance above 20-fold higher than BSA. XL1 cells were infected with these phages and spread in plate to produce 100-200 of plaques. […]
The phages recovered from the 5th biopanning step having the highest O/I ratio in each library were isolated as plaques. […] Most plaques were analyzed to show the absorbance value of AR-DBD higher than that of BSA. The DNA sequencing was performed for 20 clones showing the absorbance value above 5-fold higher than BSA. […]

T2 sequence (P02751 1266-1356): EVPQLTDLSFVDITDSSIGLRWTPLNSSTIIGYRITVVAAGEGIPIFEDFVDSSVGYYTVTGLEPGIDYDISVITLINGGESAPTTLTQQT
T3 sequence (P02768 25-609 limits assumed): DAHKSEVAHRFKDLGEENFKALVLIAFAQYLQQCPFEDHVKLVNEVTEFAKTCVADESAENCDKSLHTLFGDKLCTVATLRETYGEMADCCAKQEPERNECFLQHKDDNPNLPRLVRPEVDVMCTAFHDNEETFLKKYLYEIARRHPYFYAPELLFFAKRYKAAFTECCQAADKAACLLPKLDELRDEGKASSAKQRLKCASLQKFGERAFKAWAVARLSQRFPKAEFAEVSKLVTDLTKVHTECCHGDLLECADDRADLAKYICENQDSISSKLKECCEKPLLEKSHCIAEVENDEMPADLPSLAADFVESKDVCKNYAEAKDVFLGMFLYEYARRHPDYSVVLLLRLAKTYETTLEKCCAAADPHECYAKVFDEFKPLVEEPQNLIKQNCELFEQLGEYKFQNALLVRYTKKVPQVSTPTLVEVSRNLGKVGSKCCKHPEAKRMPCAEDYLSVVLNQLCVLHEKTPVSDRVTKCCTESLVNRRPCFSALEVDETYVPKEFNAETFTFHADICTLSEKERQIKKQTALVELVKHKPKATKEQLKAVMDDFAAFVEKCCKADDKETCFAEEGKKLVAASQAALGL

ASPFWAGSWTWENGKWTWKGWVPSNA [Peptide 2 specific to VEGF (Table 3b), bipodal-peptide binder]: the Kd (in general, the equilibrium constant for the complex coming apart) in test [1] was found to be 326 nM. In [2], the koff (commonly the rate constant with which the complex falls apart) was 0.011 s⁻¹ and the kon (in general, a measure of how fast the partners come together) came to 35000 M⁻¹ s⁻¹.
Consider HCSSAVGKKWTYNPATGKFTVQEGIIRLEQ (Synthetic peptide (Anigen)) [Bipodal-peptide binder with GB1 m3 β-hairpin backbone carrying the ED-B peptide 2 binding regions], for which the Kd in test [3] turned out to be 70 nM. Also, in test [4], the koff stood at 0.0119 s⁻¹ and the kon was found to be 169000 M⁻¹ s⁻¹.
With HSQGSPGSWTWENGKWTWKGRYSHRA [Peptide 3 specific to fibronectin ED-B (Table 3a), bipodal-peptide binder], the Kd in test [5] is 2500 nM. For the same molecule, in [6], the koff was 0.099 s⁻¹ and the kon came out at 390000 M⁻¹ s⁻¹.
In the case of YGAYPWGSWTWENGKWTWKGWRVSRD, the binding result in test [7] and in test [8] was “binds” each time.
Molecule MSADKSGSWTWENGKWTWKGQVRTRD [Peptide 1 specific to fibronectin ED-B (Table 3a), bipodal-peptide binder] registered a Kd in [5] of 620 nM. For the same molecule, in test [6], the koff is 0.024 s⁻¹ and the kon turned out to be 38000 M⁻¹ s⁻¹.
On to SANSLYGSWTWENGKWTWKGTSRQRW [Peptide 2 specific to HSA (Table 3e), bipodal-peptide binder], for which the binding result in [7] was “binds”.
Regarding GSWTWENGKWTWKGIIRLEQ [C-terminal region peptide derived from ED-B peptide 2 (monopodal, one target binding region removed)], in [9], the koff came out at 0.022 s⁻¹ and the kon amounted to 1770 M⁻¹ s⁻¹. Also, the affinity in test [10], expressed as Kd, was 12800 nM.
For the molecule HAFYYTGSWTWENGKWTWKGWPVTTS [Peptide 3 specific to VEGF (Table 3b), bipodal-peptide binder], in test [8], the binding result is listed as “binds”.
Consider YAYPLLGSWTWENGKWTWKGWYQKWI [Peptide 2 specific to nAchR (Table 3d), bipodal-peptide binder], for which the binding result in test [11] was “binds”.
For the molecule HCSSAVGKTWNPATGKWTEGIIRLEQ (Synthetic peptide (Anigen)) [Bipodal-peptide binder with HP7 β-hairpin backbone carrying the ED-B peptide 2 binding regions], the Kd in [3] turned out to be 84 nM. In test [4], this molecule registered a koff of 0.0197 s⁻¹ and a kon of 236000 M⁻¹ s⁻¹.
Take YAHFGWGSWTWENGKWTWKGTTDSQS [Peptide 5 specific to HSA (Table 3e), bipodal-peptide binder]: the binding result in test [7] is reported as “binds”.
Take HCSSAVGSWTWENGKWTWKG [N-terminal region peptide derived from ED-B peptide 2 (monopodal, one target binding region removed)]: in test [9], the off-rate (koff) came out at 2.54 s⁻¹ and the kon came out at 4290 M⁻¹ s⁻¹. Also, in test [10], binding was characterised by a dissociation constant (Kd) of 592000 nM.
Take AAPTSFGSWTWENGKWTWKGWQMWHR [Peptide 5 specific to VEGF (Table 3b), bipodal-peptide binder]: in test [8], the binding result is on record as “binds”.
For the molecule ASLPAWGSWTWENGKWTWKGWSTRTA [Peptide 3 specific to nAchR (Table 3d), bipodal-peptide binder], in test [11], the binding result is “binds”.
On to YAHVYYGSWTWENGKWTWKGHRVTQT [Peptide 3 specific to HSA (Table 3e), bipodal-peptide binder], for which, in test [7], the binding result is listed as “binds”.
On to YGFAPFGSWTWENGKWTWKGYSTQKP [Peptide 1 from the AR-DBD biopanning (14/20 clones), bipodal-peptide binder], for which, in test [12], the “fold absorbance over BSA” value was greater than 5 fold.
